Broadly, the EC50 is the concentration that produces a half-maximal response. A higher EC50 goes with a need for much substance. Broadly, the Kd is the concentration at which binding is half-saturated. A higher Kd goes with weaker binding. One may read the koff as the first-order rate constant of dissociation.

Test [1] deals with MPER-TM1 (HIV-1 (strain not stated)). Briefly: ELISA. (An ELISA detects its analyte on a solid surface through an enzyme-linked reagent.)
For test [2], the target named is Recombinant gp41 (r-gp41; HIV-1MN isolate) (HIV-1 isolate MN, UniProt P05877). In words: ELISA.
Recombinant gp41 (r-gp41; HIV-1MN isolate), sequence (P05877 whole entry, looked up): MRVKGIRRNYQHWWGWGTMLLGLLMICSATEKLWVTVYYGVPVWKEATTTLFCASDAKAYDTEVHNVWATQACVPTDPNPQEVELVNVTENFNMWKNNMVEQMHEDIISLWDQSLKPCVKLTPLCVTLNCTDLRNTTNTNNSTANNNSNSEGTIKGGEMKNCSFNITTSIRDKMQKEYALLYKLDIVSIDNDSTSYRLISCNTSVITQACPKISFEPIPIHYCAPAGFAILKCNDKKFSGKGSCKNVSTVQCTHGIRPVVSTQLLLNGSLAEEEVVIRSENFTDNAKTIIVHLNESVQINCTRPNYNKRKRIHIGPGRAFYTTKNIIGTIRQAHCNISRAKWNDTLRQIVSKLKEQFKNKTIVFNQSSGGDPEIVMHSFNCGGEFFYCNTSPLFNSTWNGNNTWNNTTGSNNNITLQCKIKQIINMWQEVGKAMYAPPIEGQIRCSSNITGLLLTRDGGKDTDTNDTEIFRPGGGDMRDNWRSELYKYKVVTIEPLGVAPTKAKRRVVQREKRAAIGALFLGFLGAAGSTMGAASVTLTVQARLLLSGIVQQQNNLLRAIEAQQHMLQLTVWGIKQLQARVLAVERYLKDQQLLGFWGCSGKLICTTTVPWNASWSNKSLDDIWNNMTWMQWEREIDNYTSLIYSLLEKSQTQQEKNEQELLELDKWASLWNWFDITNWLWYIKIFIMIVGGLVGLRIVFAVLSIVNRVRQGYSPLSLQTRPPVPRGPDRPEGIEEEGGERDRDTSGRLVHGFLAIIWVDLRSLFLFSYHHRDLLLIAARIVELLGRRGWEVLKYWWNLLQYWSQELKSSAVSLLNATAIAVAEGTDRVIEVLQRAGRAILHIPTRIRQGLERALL
Test [3] deals with 4E10 WT Fab. In words: SPR. A general note: In SPR one partner is held on a chip, and binding of the other changes the refractive index at the surface.

Where no end group is shown, it is not given here.

Turning to 4E10 IgG1 MAb (antibody), the concentration giving a half-maximal response (EC50) in test [1] came out at 0.1 nM.

As to 4E10 WT Fab, the EC50 in test [1] worked out at 1 nM.

B1: 4E10 WDWD Fab (Fab, V domains shown)
VH: VQLVQSGAEVKRPGSSVTVSCKASGGSFSTYALSWVRQAPGRGLEWMGGVIPLLTITNYAPRFQGRITITADRSTSTAYLELNSLRPEDTAVYYCAREGTTGDGDLGKPIGAFAHWGQGTLVTVSS
VL: EIVLTQSPGTQSLSPGERATLSCRASQSVGNNKLAWYQQRPGQAPRLLIYGASSRPSGVADRFSGSGSGTDFTLTISRLEPEDFAVYYCQQYGQSLSTFGQGTKVEVK
Regarding B1, in test [2], the binding result is reported as “binds”.

As to NWFDITNWLWYIRRRR-NH2 [4E10ep variant (…-RRR)], in test [3], the Kd came out at 21 nM, the dH (van't Hoff) was -11.5 kcal/mol and the dissociation rate constant (koff) turned out to be 0.0011 s⁻¹.
